Paper PMC9896449 (Nature Communications, 2023)

Molecular target: ShAb01 (nurse shark (Ginglymostoma cirratum))
Experiment: BLI
Details: both partners purified

B1: SARS-CoV-1 RBD (domain or fragment)
chain: not shown
  Kd: 198 nM
